Results: patent US10927157B2, “Helix-grafted proteins as inhibitors of disease-relevant protein-protein interactions” (priority 2014, dated 2021)

Key:
[1] = biological target: T1, 5-helix (Human immunodeficiency virus type 1 group M subtype B, UniProt P04578, C598G/DEL583-596/DEL601-623/N624G); settings: untagged ligand, E. coli cell lysate, Ni-NTA
Procedure: Lysate Ni-NTA Pulldown Assay: GLUE-Cpep was cloned into MCS1 of pETDuet-1 using restriction enzymes NcoI and NotI. The 5 helix with a C-terminal His6× tag was cloned into MCS2 of pETDuet-1 using the restriction enzymes NdeI and KpnI. Completed constructs were transformed into BL21s (DE3). Cells containing the co-expressed pair were inoculated and induced as described previously. Cells were spun down and resuspended in lysis buffer (100 mM NaCl, 20 mM Tris pH 7.4, 10 mM (NH4)2SO4), lysed by sonication, and spun down to remove cell debris. Cleared lysate was incubated with 200 μL Ni-NTA agarose resin for 1 hour. Ni-NTA agarose was washed with 8 mL lysis buffer and with 10 mM imidazole. Proteins were eluted with 500 μL lysis buffer containing 400 mM imidazole.

[2] = test system: HIV-1 IIIB virus; experiment: In cellulo HIV-1 infection assay (CEM-GFP cells, flow cytometry); assay type: cell-based
Procedure: The ELMO grafts were tested as potential inhibitors of HIV-1 in cellulo. The validated assay uses a Lymphoblastoid CD4^+ T-cell line with stably integrated EGFP (CEM-GFP) under the control of the HIV-1 long terminal repeat (LTR) promoter. 293T cells are simultaneously transfected with HIV-1 IIIB virus. The infected cells and non-infected cells are mixed together along with the desired inhibitor. If infection succeeds the number of infected GFP^+ cells increases, which can be measured by flow cytometry (FIG. 18). The inhibition of each ELMO construct was determined in a dose depended manner and compared to C34 and T20 (FIG. 19).

[3] = biological target: T1, 5-helix; settings: E. coli cell lysate, FLAG-tagged ligand, Ni-NTA plates
Procedure: ELISA: Separately, wt-GLUE, GLUE-Cpep, and the C-peptide were cloned into MCS1 of pETDuet-1 with FLAG tags using restriction enzymes NcoI and NotI. The 5-helix with a C-terminal His6× tag was cloned into MCS2 of pETDuet-1 using restriction enzymes NdeI and KpnI. Completed constructs were transformed into BL21s (DE3). Cells containing the co-expressed pair were inoculated and induced as described previously. Cells were spun down and resuspended in lysis buffer (20 mM Hepes pH 7.5, 100 mM NaCl), lysed by sonication, and spun down to remove cell debris. Cleared lysates were incubated on clear Ni-NTA coated plates for 1 hour at room temperature and washed 4× with 200 μL wash buffer (20 mM Hepes pH 7.5, 150 mM NaCl, 0.05% Tween-20, 0.01 mg/mL BSA). HRP-conjugated mouse anti-DDDDK antibody in LiCor Blocking Buffer was incubated for 1 hour at room temperature, followed by 4×200 μL washes. Colorimetry was developed using TMB-One substrate and absorbance was measured at 655 nm on a SynergyMx Microplate Reader.

[4] = Circular dichroism thermal denaturation at 222 nm; assay type: physicochemical; settings: CD 222 nm, Tris buffer pH 7.4, 0 to 90 °C
Procedure: Circular Dichroism: Proteins were purified as described above. […] Wavelength data are the average of three scans from 250 nm to 200 nm in 1 nm steps at 25° C. Thermal denaturation experiments at 222 nm were run from 0 to 90° C. in two-degree steps at a two-degree/minute rate of increase with one-minute equilibration and data averaging at each temperature. Tm values were obtained from minima of the first derivative of θ versus 1/T plots.

[5] = biological target: T1, 5-helix; settings: 50 nM, 25% human serum, 37 °C, 4 or 12 h
Procedure: Colorimetry was developed using TMB-One substrate and absorbance was measured at 655 nm on a SynergyMx Microplate Reader.

[6] = room temperature (~25 °C)
Procedure: Protein Purification: Genes were cloned into pETDuet-1 using restriction enzymes BamHI and PacI, downstream of a His6× tag and transformed into BL21s (DE3). Cells were grown in 2.5 L LB cultures containing 50 μg/mL carbenicillin at 37° C. to OD600=0.5 and induced with 1 mM IPTG at 25° C. overnight. Cells were then collected by centrifugation, resuspended in Tris buffer (20 mM Tris pH 7.4, 100 mM NaCl, 10 mM (NH4)2SO4) and stored at −20° C. Frozen pellets were thawed and sonicated with 1 second pulses for 2 minutes. The lysate was cleared by centrifugation (15,000 rpm 30 min.) and the supernatant was mixed with 1 mL of Ni-NTA agarose resin for 1 hour at 4° C. The resin was collected by centrifugation (4,750 rpm, 10 min.). The resin was sequentially washed with 50 mL of buffer containing 20 mM imidazole, 10 mL buffer containing 50 mM imidazole, and 5 mL buffer containing 100 mM imidazole. […] The proteins were dialyzed against Tris buffer and analyzed for purity by SDS-PAGE shown below. Purified protein concentrations were quantified using Beer's Law at an absorbance of 280 nm, following standard practice (Grimsley, G. R.; Pace, C. N. Current Protocols in Protein Science (2003), 3.1.1-3.1.9).
All proteins were produced recombinantly in a pET vector with a His6× tag. […] Their expression was quantified in mg/L and compared to wtGLUE (FIG. 12A). […]

[7] = biological target: T1, 5-helix; assay type: cell-based, HIV; design: N-terminal superpositive GFP tethered to the 5-helix was cloned into pETDuet-1; His6 (N); His6 (C); expressed in transfected cells; host or cells: E. coli BL21 (DE3), pETDuet-1; settings: E. coli co-expressing N-spGFP-5-helix and C-spGFP fusion, flow cytometry
Procedure: Split-Superpositive GFP (split-spGFP) Reassembly Assay: Split-spGFP reassembly experiments were performed as previously described (Chapman, A. M.; 3 McNaughton, B. R. Molecular BioSystems 2012, 8, 2036). […] The completed construct was transformed into BL21s (DE3) and the cells were made electrocompetent via standard protocols. Separately, GLUE-Cpep and C-peptide tethered to the C-terminal fragment of superpositive GFP were independently cloned into pBAD using restriction enzymes NcoI and BsrGI. Constructs were electroporated into electrocompetent BL21s (DE3) containing the N-terminal superpositive GFP plasmid, pulsing at 1.8 kV in a 1 mm cuvette. Cells were allowed to recover at 37° C. for 1 hour, and then plated onto agar plates containing carbenicillin and kanamycin. Individual colonies were picked and passaged once, followed by induction at 37° C. with 1 mM IPTG and 0.2% arabinosewhen cultures reached an OD600 of 0.5. After 6 hours, cells were spun down and resuspended in 5 mL PBS. GFP fluorescence was measured by MoFlo Flow Cytometer.

Molecule: C26-ELMO: shortened C-peptide grafted onto N-terminal helix of ELMO (SEQ ID NO:7) (WMEWDREINNYTSLIHSLIEESQNQQKQQRLNRLVE)
- co-purification with His6-tagged 5-helix [1]: could also be purified alongside 5-Helix-His6×
- inhibition of HIV-1 infection at 250 nM ([2]; 250 nM): some inhibition of infection

B1: wtELMO: wild-type form of ELMO (Engulfment and Cell Motility) PTB domain, PDB 2VSZ (protein)
chain: PILELKEKIQPEILELIKQQRLNRLVEGTCFRKLNARRRQDKFWYCRLSPNHKVLHYGDLEESPQGEVPHDSLQDKLPVADIKAVVTGKDCPHMKEKGALKQNKEVLELAFSILYDSNCQLNFIAPDKHEYCIWTDGLNALLGK
- ELISA signal / affinity for 5-helix [3]: strong ELISA signal
- inhibition of HIV-1 infection ([2]; dose dependent, compared to C34 and T20): no inhibitory effect

B2: GLUE-Cpep: helix-grafted GLUE PH domain displaying gp41 C-peptide on its C-terminal helix (grafted helix SEQ ID NO:3) (protein)
chain: MEYWHYVETTSSGQPLLREGEKDIAIDQSVGLYHGKSKILQRQRGRIFLTSQRIIYIDDAKPTQNSLGLELDDLAYVNYSSGFLTRSPALILFFKDPSSSTEFVQLSFRKSDGVWFSWATEIALYTILIHSLIEESQNQQEKNEQELL
- Tm [4]: ~79 °C
- ELISA signal / affinity for 5-helix [3]: slightly better affinity than the native C-peptide
- ELISA signal for 5-helix after pre-incubation with human serum [5]: remains functional
- co-purification with His6-tagged 5-helix [1]: excellent selectivity
- solubility and folding in aqueous solution [6]: soluble and well-folded
- interaction-dependent GFP reassembly fluorescence [7]: highly fluorescent
